# Assay results as given in ChEMBL document CHEMBL3861952, “Donepezil-like multifunctional agents: Design, synthesis, molecular modeling and biological evaluation” (Eur J Med Chem, 2016).
# B1: Acetylcholinesterase (Homo sapiens), P22303 (protein)
# chain: MRPPQCLLHTPSLASPLLLLLLWLLGGGVGAEGREDAELLVTVRGGRLRGIRLKTPGGPVSAFLGIPFAEPPMGPRRFLPPEPKQPWSGVVDATTFQSVCYQYVDTLYPGFEGTEMWNPNRELSEDCLYLNVWTPYPRPTSPTPVLVWIYGGGFYSGASSLDVYDGRFLVQAERTVLVSMNYRVGAFGFLALPGSREAPGNVGLLDQRLALQWVQENVAAFGGDPTSVTLFGESAGAASVGMHLLSPPSRGLFHRAVLQSGAPNGPWATVGMGEARRRATQLAHLVGCPPGGTGGNDTELVACLRTRPAQVLVNHEWHVLPQESVFRFSFVPVVDGDFLSDTPEALINAGDFHGLQVLVGVVKDEGSYFLVYGAPGFSKDNESLISRAEFLAGVRVGVPQVSDLAAEAVVLHYTDWLHPEDPARLREALSDVVGDHNVVCPVAQLAGRLAAQGARVYAYVFEHRASTLSWPLWMGVPHGYEIEFIFGIPLDPSRNYTAEEKIFAQRLMRYWANFARTGDPNEPRDPKAPQWPPYTAGAQQYVSLDLRPLEVRRGLRAQACAFWNRFLPKLLSATDTLDEAERQWKAEFHRWSSYMVHWKNQFDHYSKQDRCSDL
# B2: Cholinesterase (Homo sapiens), P06276 (protein)
# chain: MHSKVTIICIRFLFWFLLLCMLIGKSHTEDDIIIATKNGKVRGMNLTVFGGTVTAFLGIPYAQPPLGRLRFKKPQSLTKWSDIWNATKYANSCCQNIDQSFPGFHGSEMWNPNTDLSEDCLYLNVWIPAPKPKNATVLIWIYGGGFQTGTSSLHVYDGKFLARVERVIVVSMNYRVGALGFLALPGNPEAPGNMGLFDQQLALQWVQKNIAAFGGNPKSVTLFGESAGAASVSLHLLSPGSHSLFTRAILQSGSFNAPWAVTSLYEARNRTLNLAKLTGCSRENETEIIKCLRNKDPQEILLNEAFVVPYGTPLSVNFGPTVDGDFLTDMPDILLELGQFKKTQILVGVNKDEGTAFLVYGAPGFSKDNNSIITRKEFQEGLKIFFPGVSEFGKESILFHYTDWVDDQRPENYREALGDVVGDYNFICPALEFTKKFSEWGNNAFFYYFEHRSSKLPWPEWMGVMHGYEIEFVFGLPLERRDNYTKAEEILSRSIVKRWANFAKYGNPNETQNNSTSWPVFKSTEQKYLTLNTESTRIMTKLRAQQCRFWTSFFPKVLEMTGNIDEAEWEWKAGFHRWNNYMMDWKNQFNDYTSKKESCVGL
# What was measured:
# [1] = substrate: C#CCN(Cc1ccc2cccc(O)c2n1)C(C#N)CCC1CCN(Cc2ccccc2)CC1; details: Homo sapiens; HEK293; 100 nM
# [2] = substrate: C#CCN(Cc1ccc2cccc(O)c2n1)C(C#N)CCC1CCN(Cc2ccccc2)CC1; details: Homo sapiens; HEK293; 20 nM
# [3] = substrate: C#CCN(Cc1ccc2cccc(O)c2n1)C(C#N)CCC1CCN(Cc2ccccc2)CC1; details: Homo sapiens; HEK293; 50 nM
# Description: Inhibition of human recombinant AChE expressed in HEK293 cells using acetylthiocholine iodide as substrate assessed as enzyme Km at 50 nM preincubated for 30 mins followed by substrate addition measured after 30 mins by Lineweaver-Burk plot analysis
# [4] = substrate: C#CCN(Cc1ccc2cccc(O)c2n1)C(C#N)CCC1CCN(Cc2ccccc2)CC1; details: Homo sapiens; HEK293; 200 nM
# [5] = substrate: C#CCN(Cc1ccc2cccc(O)c2n1)C(C#N)CCC1CCN(Cc2ccccc2)CC1; details: Homo sapiens; HEK293; 20 nM; remark: listed apart in the source
# [6] = substrate: C#CCN(Cc1ccc2cccc(O)c2n1)C(C#N)CCC1CCN(Cc2ccccc2)CC1; details: Homo sapiens; HEK293; 50 nM; remark: listed apart in the source
# Description: Inhibition of human recombinant AChE expressed in HEK293 cells using acetylthiocholine iodide as substrate assessed as enzyme Vmax at 50 nM preincubated for 30 mins followed by substrate addition measured after 30 mins by Lineweaver-Burk plot analysis
# [7] = substrate: C#CCN(Cc1ccc2cccc(O)c2n1)C(C#N)CCC1CCN(Cc2ccccc2)CC1; details: Homo sapiens; HEK293; 200 nM; remark: listed apart in the source
# [8] = substrate: C#CCN(Cc1ccc2cccc(O)c2n1)C(C#N)CCC1CCN(Cc2ccccc2)CC1; details: Homo sapiens; HEK293; 100 nM; remark: listed apart in the source
# [9] = substrate: C#CCN(Cc1ccc2cccc(O)c2n1)C(C#N)CCC1CCN(Cc2ccccc2)CC1; details: Homo sapiens; HEK293; 200 nM; remark: listed apart in the source
# [10] = substrate: C#CCN(Cc1ccc2cccc(O)c2n1)C(C#N)CCC1CCN(Cc2ccccc2)CC1; details: Homo sapiens; HEK293; 200 nM; remark: listed apart in the source
# [11] = substrate: C#CCN(Cc1ccc2cccc(O)c2n1)C(C#N)CCC1CCN(Cc2ccccc2)CC1; details: Homo sapiens; HEK293; 100 nM; remark: listed apart in the source
# [12] = substrate: C#CCN(Cc1ccc2cccc(O)c2n1)C(C#N)CCC1CCN(Cc2ccccc2)CC1; details: Homo sapiens; HEK293; 20 nM; remark: listed apart in the source
# [13] = substrate: C#CCN(Cc1ccc2cccc(O)c2n1)C(C#N)CCC1CCN(Cc2ccccc2)CC1; details: Homo sapiens; HEK293; 50 nM; remark: listed apart in the source
# Description: Inhibition of human recombinant BuChE expressed in HEK293 cells using S-butyrylthiocholine iodide as substrate assessed as enzyme Vmax at 50 nM preincubated for 30 mins followed by substrate addition measured after 30 mins by Lineweaver-Burk plot analysis
# [14] = substrate: C#CCN(Cc1ccc2cccc(O)c2n1)C(C#N)CCC1CCN(Cc2ccccc2)CC1; details: Homo sapiens; HEK293; 100 nM; remark: listed apart in the source
# [15] = substrate: C#CCN(Cc1ccc2cccc(O)c2n1)C(C#N)CCC1CCN(Cc2ccccc2)CC1; details: Homo sapiens; HEK293; 50 nM; remark: listed apart in the source
# Description: Inhibition of human recombinant BuChE expressed in HEK293 cells using S-butyrylthiocholine iodide as substrate assessed as enzyme Km at 50 nM preincubated for 30 mins followed by substrate addition measured after 30 mins by Ellman's method
# [16] = substrate: C#CCN(Cc1ccc2cccc(O)c2n1)C(C#N)CCC1CCN(Cc2ccccc2)CC1; details: Homo sapiens; HEK293; 20 nM; remark: listed apart in the source
Protein,Vmax [1],Km [2],Km [3],Km [4],Vmax [5],Vmax [6],Vmax [7],Km [8],Vmax [9],Km [10],Vmax [11],Vmax [12],Vmax [13],Km [14],Km [15],Km [16]
B1,10.2 mAU/min,368 µM,622 µM,936 µM,17.7 mAU/min,13 mAU/min,7.3 mAU/min,955 µM,–,–,–,–,–,–,–,–
B2,–,–,–,–,–,–,–,–,83 mAU/min,1240 µM,87 mAU/min,108 mAU/min,101 mAU/min,456 µM,289 µM,249 µM
